Measured values taken from publication PMC10746158, “Archaeal GPN-loop GTPases involve a lock-switch-rock mechanism for GTP hydrolysis” (mBio, 2023).

Substrate: Nc1nc2c(ncn2[C@@H]2O[C@H](COP(=O)(O)OP(=O)(O)OP(=O)(O)O)[C@@H](O)[C@H]2O)c(=O)[nH]1
Assay: Malachite green phosphate release, Michaelis-Menten fit
Type: biochemical, Sulfolobus acidocaldarius
Settings: 65 °C, 0-500 µM GTP, 50 mM Tris pH 8.0, 150 mM NaCl, 10 mM MgCl2, 10 µM SaGPN

B1: SaGPN (Sulfolobus acidocaldarius DSM 639) (protein)
chain: MYFIFVLGTAGSGKTTLVKALQDYLLNNELDTAIINLDPAVEVLPYKPDIDAREYVDVYDVMNKYELGPNSSLVISVDLLLTKAKELKEDLNQLQANYVLVDTPGQIELFAYRDTGKILSSFISEGSKSVSVFLFDSYLSKDPKSFLSLFLLSSSIKFRIDMPQISVLSKVDLLSSSELERMRSWIEDGSIIDELGSIDEYSFELVKTIVENLESFPIPVSSTNFSGLDQLYAEVQKVLAGGEDFETEEPNPRL
notes: E. coli BL21(DE3) Rosetta; Y2-A240 built, 14 C-terminal residues disordered
Km: 40.48 µM
